Test results as given in patent US20240325557A1, “TREATMENT OF CANCER” (INNATE PHARMA, priority 2020, published 2024).
Like-named read-outs stand apart in the source and are kept apart here.

How the values were obtained:
[1] = system: SUM185 cells; assay: Fab-ZAP internalization assay (CTG cell viability); type: cell-based, human
Protocol: (§1) The ability of the anti-Nectin-4 antibodies to induce nectin-4 internalization was assessed on SUM190 cell lines expressing lower levels of nectin-4 and in SUM185 cells expressing higher levels of Nectin-4. The internalization was indirectly determined by using the Fab-ZAP human Internalization Kit (Advanced Targeting Systems) to allow the anti-Nectin-4 antibodies to target and eliminate Nectin-4 expressing cells, with measurement of cell viability using the CTG substrate (CellTiter-Glo® Luminescent Cell Viability Assay (Promega). Fab-ZAP is a chemical conjugate of goat anti-human monovalent antibody and the ribosome-inactivating protein, saporin. The antibodies used are affinity-purified polyclonal antibodies against both the heavy and light chain of human IgG. This secondary conjugate is used to evaluate the potential of a primary antibody to internalize.
(§2) Briefly, a concentration range of the anti-Nectin-4 antibodies or the controls were incubated with SUM190 or SUM185 cells. After 45-minute incubation at 4° C., the non-bound antibodies were washed away and Fab-ZAP was added on top of the cells. The newly formed complexes (anti-nectin-4 antibody+Fab-ZAP) internalized into the cells where the Saporin was released and stopped the protein synthesis leading to cell death. The internalization capability of the antibody was indirectly determined by the cell's viability: the more efficient was the cell killing; the better was the internalization capability of the antibody.

[2] = system: SUM190 cells; assay: Fab-ZAP internalization assay (CTG cell viability); type: cell-based, human
Protocol: as §1, §2

[3] = system: SUM190 cells; assay: In vitro ADC cytotoxicity, 5 days, CTG; type: cell-based, human; conditions: antibodies conjugated to ggfg-Dxd or PEG (8U)-Val-Ala-PAB-Exatecan, DAR=8
Protocol: We assessed the ability of the 5E7 antibody (mAb6) conjugated with camptothecin analogues (Dxd or Exatecan) to kill SUM190 cells. […] A first ADC was prepared in which antibodies were conjugated at 8 toxins per antibody (DAR=8) to a camptothecin analogue (Dxd) via a linker comprising an intracellularly cleavable tetrapeptide linker (GGFG) having the structure shown below, referred to as ggfg-Dxd:
A second ADC was prepared in which antibodies were conjugated at 8 toxins per antibody (DAR=8) to another camptothecin analogue (exatecan) via the cleavable linker having the structure below, referred to as PEG (8U)-Val-Ala-PAB-Exatecan:
Luminescence vs. Ab concentration was plotted on graph.
For each ADC, a concentration range of ADC was incubated with nectin-4-expressing cells. After incubation, CTG substrate was added at 1/1 ratio and the luminescent signal was read with a plate reader (Enspire). It allowed quantifying the ATP present (indicator of metabolically active cells) which was proportional to cell viability.

[4] = system: SUM190 cells; assay: In vivo efficacy of ADCs, SUM190 mouse model of human breast cancer (Example 9); conditions: single i.v. injection 3 mg/kg; antibodies conjugated to ggfg-Dxd, DAR=8
Protocol: When tumors reached a volume between 195 and 250 mm3, mice were randomized into groups of 9 mice for intravenous treatment with a single injection of 3 mg/kg of camptothecin ADCs. Tumor growth were followed twice a week. Kaplan Meier survival curves were established by using GraphPad Prism V7 software according to the following criteria: When the tumor volume reached 1500 mm3, mice were euthanized and considered dead on the day of sacrifice (D).

[5] = system: rat Nectin-4; assay: Flow cytometry species cross-reactivity on CHO cells; type: binding
Protocol: Anti-Nectin-4 antibodies were tested by flow cytometry for binding to different CHO cell lines made to express respectively the mouse, cynomolgus and rat Nectin-4 protein (including an N-terminal V5 tag not shown in the sequences below).

Sequence of rat Nectin-4 (as listed by the source): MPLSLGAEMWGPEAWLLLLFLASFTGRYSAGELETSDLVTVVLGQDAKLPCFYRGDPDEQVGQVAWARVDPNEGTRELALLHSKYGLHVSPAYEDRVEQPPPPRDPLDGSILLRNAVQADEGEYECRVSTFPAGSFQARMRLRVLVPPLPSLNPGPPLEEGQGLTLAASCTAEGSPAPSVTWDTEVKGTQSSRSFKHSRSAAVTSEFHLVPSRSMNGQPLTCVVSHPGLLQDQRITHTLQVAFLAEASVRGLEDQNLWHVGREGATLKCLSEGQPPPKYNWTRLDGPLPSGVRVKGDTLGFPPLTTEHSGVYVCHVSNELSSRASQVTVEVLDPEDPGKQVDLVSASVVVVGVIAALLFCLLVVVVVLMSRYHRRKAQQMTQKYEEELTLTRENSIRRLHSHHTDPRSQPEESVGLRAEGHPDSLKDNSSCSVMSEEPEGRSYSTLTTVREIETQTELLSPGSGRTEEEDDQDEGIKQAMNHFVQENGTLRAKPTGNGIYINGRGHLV

Row | Molecule | induction of internalization [1] | induction of internalization [2] | killing of SUM190 cells (cell viability) [3] | control of tumor growth [4] | binding to rat Nectin-4 expressing CHO cells [5] | binding to rat Nectin-4 expressing CHO cells ([5]; listed as mAb6) | binding to rat Nectin-4 expressing CHO cells ([5]; listed as mAb7)
1 | 5E7 (antibody, V domains shown) VH: QVQLQQPGAELVKPGASVKLSCKASGYIFTSYWMHWVKQRPGQGLEWIGEIDPSDSYTNYNQKFKGKATLTLDKSSSTTYMQLSSLTSEDSAVYYCVRGYGNYGDYWGQGTTLTVSS VL: DVVMTQAAFSNPVTLGTSASISCRSSKSLLHSNGITYLYWYLQKPGQSPQLLIYQMSNLASGVPDRFSSSGSGTDFTLRISRVEAEDVGVYYCAQNLELPWTFGGGTKLEIK | more efficient than enfortumab in inducing internalization | as efficient as the enfortumab in inducing internalization | more potent that mAb3 conjugated to camptothecin analogue | strong ability to prevent tumor growth | showed binding to rat Nectin 4 expressing cells | bind to rat Nectin-4 | –
2 | 10B12: anti-Nectin-4 antibody, VH SEQ ID NO: 24, VL SEQ ID NO: 25, binds junction of domain C1 and V (antibody, listed as Mus musculus, V domains shown) VH: QVQLQQPGAELVKPGASVKLSCKASGYTFTSYWMHWVKQRPGQGLEWIGEIDPSDSYTNYNQKFKGKATLTVDKSSSTAYMQLSSLTSEDSAVYYCVRGYGNYGDYWGQGTTLTVSS VL: DIVMTQAAFSNPVTLGTSASISCRSSKSLLHSNGITYLYWYLQKPGQSPQLLIYQMSNLASGVPDRFSSSGSGTDFTLRISRVEAEDVGVYYCAQNLELPWTFGGGTKLEIK | – | as efficient as the enfortumab in inducing internalization | – | – | showed binding to rat Nectin 4 expressing cells | – | bind to rat Nectin-4
3 | N41 (antibody, V domains shown) VH: QVQLKQSGPGLVQPSQSLSITCTVSGFSLTNYGVHWVRQSPGKGLEWLGVIWSGGSTDYNAAFISRLSISKDTSKSQVFFKMNSLQADDTAIYYCARELIHAMDNWGQGTSVTVSS VL: DIQMTQSPASLSVSVGETVTITCRASENIYSNLAWYQQKQGNSPQLLVFAATNLADGVPSRFSGSGSGTQYSLKINSLQSEDFGTYYCQHFWGTPTFGGGTKLEIK | – | – | – | no longer showed the ability to control tumor growth | – | – | –
